According to patent US10556936B2, “Immunogenic proteins and fragments thereof from allergenic mites” (ALK-ABELLÓ A/S, priority 2016, dated 2020):

Legend:
Type in all cases: cell-based, human
[1] = tested on: basophils in whole blood from HDM allergic donors; assay: Basophil Activation Test (BAT); settings: blood from HDM allergic individuals (n=14)
In short: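 Basophil activation was read by flow cytometry as increased surface activation markers. The stimulus was a 1 h exposure of blood from 14 HDM-allergic donors to test proteins or major mite allergens at graded concentrations (e.g. 1–1000 ng/ml).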

[2] = tested on: T cell lines obtained from HDM allergic individuals and non-allergics; assay: In vitro T cell proliferation test in T cell lines (Example 3); settings: 0.5 or 2 ug/ml, 72 h; for % responders of in-vitro T cell proliferation test, Allergic: T cell lines from HDM allergic individuals (n=30); for % responders of in-vitro T cell proliferation test, Non-allergics: T cell lines from non-allergics (n=8)
In short: (§1)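 Freshly isolated PBMC (5×10^6/ml) from mite-allergic patients or non-allergics cultured 5 days with test protein up to 10 ug/ml; IFN-gamma, IL-9, IL-10, IL-17, IL-31 in supernatants by multiplex immunoassay. T cell lines, raised 3 weeks on HDM extract, tested at 0.5 or 2 ug/ml protein in 72 h proliferation assay.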

[3] = tested on: PBMC cells obtained from mite allergic patients and non-allergics; assay: Ex vivo stimulation of PBMC: cytokine production (IFN-gamma, IL-9, IL-10, IL-17, IL-31)
In short: as §1

B1: Derf1: major house dust mite allergen, group 1, Dermatophagoides farinae; control (protein, UniProt P16311 99-321, looked up)
Peptidase 1: TSACRINSVNVPSELDLRSLRTVTPIRMQGGCGSCWAFSGVAATESAYLAYRNTSLDLSEQELVDCASQHGCHGDTIPRGIEYIQQNGVVEERSYPYVAREQRCRRPNSQHYGISNYCQIYPPDVKQIREALTQTHTAIAVIIGIKDLRAFQHYDGRTIIQHDNGYQPNYHAVNIVGYGSTQGDDYWIVRNSWDTTWGDSGYGYFQAGNNLMMIEQYPYVVIM
In the case of B1, the “# of individuals of 14 with positive BAT test” value ([1]; 1 ng/ml) is reported as 10, the “# of individuals of 14 with positive BAT test” value ([1]; 10 ng/ml) is reported as 10 and the “# of individuals of 14 with positive BAT test” value ([1]; 100 ng/ml) is reported as 10. The “# of individuals of 14 with positive BAT test” value ([1]; 1000 ng/ml) was 10, the “% responders of in-vitro T cell proliferation test, Allergic” value [2] was 70% and the “% responders of in-vitro T cell proliferation test, Non-allergics” value (“% responders … Non-allergics” below) [2] was 0%. For the same molecule, the “% HDM allergic individuals with cytokine production in ex-vivo T cell assay IL-5” value [3] was 75%, the “% HDM allergic individuals with cytokine production in ex-vivo T cell assay IL-9” value [3] was 19% and the “% HDM allergic individuals with cytokine production in ex-vivo T cell assay IL-10” value [3] was 50%. The “% HDM allergic individuals with cytokine production in ex-vivo T cell assay IL-13” value [3] was 56%, the “% HDM allergic individuals with cytokine production in ex-vivo T cell assay IL-17” value [3] was 6% and the “% HDM allergic individuals with cytokine production in ex-vivo T cell assay IL-31” value [3] was 0%. The “% HDM allergic individuals with cytokine production in ex-vivo T cell assay INF-g” value [3] was 0%, the “% non-allergic individuals with cytokine production in ex-vivo T cell assay IL-5” value [3] was 0% and the “% non-allergic individuals with cytokine production in ex-vivo T cell assay IL-9” value [3] was 0%. The “% non-allergic individuals with cytokine production in ex-vivo T cell assay IL-10” value [3] was 33%, the “% non-allergic individuals with cytokine production in ex-vivo T cell assay IL-13” value [3] was 0% and the “% non-allergic individuals with cytokine production in ex-vivo T cell assay IL-17” value [3] was 17%. For the same molecule, the “% non-allergic individuals with cytokine production in ex-vivo T cell assay IL-31” value [3] was 0% and the “% non-allergic individuals with cytokine production in ex-vivo T cell assay INF-g” value [3] was 0%.

B2: Derf2: major house dust mite allergen, group 2, Dermatophagoides farinae; control (protein, UniProt Q00855 18-146, looked up)
Mite group 2 allergen Der f 2: DQVDVKDCANNEIKKVMVDGCHGSDPCIIHRGKPFTLEALFDANQNTKTAKIEIKASLDGLEIDVPGIDTNACHFMKCPLVKGQQYDIKYTWNVPKIAPKSENVVVTVKLIGDNGVLACAIATHGKIRD
B2 was tested, and the “# of individuals of 14 with positive BAT test” value ([1]; 1 ng/ml) was 13, the “# of individuals of 14 with positive BAT test” value ([1]; 10 ng/ml) was 13 and the “# of individuals of 14 with positive BAT test” value ([1]; 100 ng/ml) was 13. For the same molecule, the “# of individuals of 14 with positive BAT test” value ([1]; 1000 ng/ml) was 13, the “% responders of in-vitro T cell proliferation test, Allergic” value [2] was 67% and the “% responders … Non-allergics” value [2] was 14%. For the same molecule, the “% HDM allergic individuals with cytokine production in ex-vivo T cell assay IL-5” value [3] was 63%, the “% HDM allergic individuals with cytokine production in ex-vivo T cell assay IL-9” value [3] was 50% and the “% HDM allergic individuals with cytokine production in ex-vivo T cell assay IL-10” value [3] was 81%. For the same molecule, the “% HDM allergic individuals with cytokine production in ex-vivo T cell assay IL-13” value [3] was 69%, the “% HDM allergic individuals with cytokine production in ex-vivo T cell assay IL-17” value [3] was 13% and the “% HDM allergic individuals with cytokine production in ex-vivo T cell assay IL-31” value [3] was 6%. For the same molecule, the “% HDM allergic individuals with cytokine production in ex-vivo T cell assay INF-g” value [3] was 6%, the “% non-allergic individuals with cytokine production in ex-vivo T cell assay IL-5” value [3] was 0% and the “% non-allergic individuals with cytokine production in ex-vivo T cell assay IL-9” value [3] was 0%. For the same molecule, the “% non-allergic individuals with cytokine production in ex-vivo T cell assay IL-10” value [3] was 33%, the “% non-allergic individuals with cytokine production in ex-vivo T cell assay IL-13” value [3] was 0% and the “% non-allergic individuals with cytokine production in ex-vivo T cell assay IL-17” value [3] was 67%. The “% non-allergic individuals with cytokine production in ex-vivo T cell assay IL-31” value [3] was 0% and the “% non-allergic individuals with cytokine production in ex-vivo T cell assay INF-g” value [3] was 17%.

B3: Derp1: major house dust mite allergen, group 1, Dermatophagoides pteronyssinus; control (protein, UniProt P08176 99-320, looked up)
Peptidase 1: TNACSINGNAPAEIDLRQMRTVTPIRMQGGCGSCWAFSGVAATESAYLAYRNQSLDLAEQELVDCASQHGCHGDTIPRGIEYIQHNGVVQESYYRYVAREQSCRRPNAQRFGISNYCQIYPPNVNKIREALAQTHSAIAVIIGIKDLDAFRHYDGRTIIQRDNGYQPNYHAVNIVGYSNAQGVDYWIVRNSWDTNWGDNGYGYFAANIDLMMIEEYPYVVIL
In the case of B3, the “# of individuals of 14 with positive BAT test” value ([1]; 1 ng/ml) is reported as 7, the “# of individuals of 14 with positive BAT test” value ([1]; 10 ng/ml) is reported as 10 and the “# of individuals of 14 with positive BAT test” value ([1]; 100 ng/ml) is reported as 10. The “# of individuals of 14 with positive BAT test” value ([1]; 1000 ng/ml) was 10, the “% responders of in-vitro T cell proliferation test, Allergic” value [2] was 73% and the “% responders … Non-allergics” value [2] was 13%. The “% HDM allergic individuals with cytokine production in ex-vivo T cell assay IL-5” value [3] was 50%, the “% HDM allergic individuals with cytokine production in ex-vivo T cell assay IL-9” value [3] was 6% and the “% HDM allergic individuals with cytokine production in ex-vivo T cell assay IL-10” value [3] was 50%. For the same molecule, the “% HDM allergic individuals with cytokine production in ex-vivo T cell assay IL-13” value [3] was 50%, the “% HDM allergic individuals with cytokine production in ex-vivo T cell assay IL-17” value [3] was 6% and the “% HDM allergic individuals with cytokine production in ex-vivo T cell assay IL-31” value [3] was 0%. The “% HDM allergic individuals with cytokine production in ex-vivo T cell assay INF-g” value [3] was 0%, the “% non-allergic individuals with cytokine production in ex-vivo T cell assay IL-5” value [3] was 0% and the “% non-allergic individuals with cytokine production in ex-vivo T cell assay IL-9” value [3] was 0%. The “% non-allergic individuals with cytokine production in ex-vivo T cell assay IL-10” value [3] was 17%, the “% non-allergic individuals with cytokine production in ex-vivo T cell assay IL-13” value [3] was 0% and the “% non-allergic individuals with cytokine production in ex-vivo T cell assay IL-17” value [3] was 17%. The “% non-allergic individuals with cytokine production in ex-vivo T cell assay IL-31” value [3] was 0% and the “% non-allergic individuals with cytokine production in ex-vivo T cell assay INF-g” value [3] was 0%.

B4: A001: house dust mite protein; SEQ ID NO: 13 (Der f), 14 (Der p); recombinant test protein (protein)
chain: KKSPDCDIERPIRECLKDGLLRYSSGQKINQFPDTIQDLNRACEELKKSETCARTFIDTCTESSYEKRSLDSLLDGIQRVMKRLCRSQTKKEKLLENVGCANSVVQDTKQCLKNYRMLVFAANKLDNKNKIMRILCCKSRKVAPCIGEAMKAKGTAVCSAKNIDYFKDVHQNIKQEMTAVVCSDFERDQCENVDVPNISESEYKDQNIFNPLRDLYKKVILG
In the case of B4, the “# of individuals of 14 with positive BAT test” value ([1]; 1 ng/ml) is reported as 0, the “# of individuals of 14 with positive BAT test” value ([1]; 10 ng/ml) is reported as 0 and the “# of individuals of 14 with positive BAT test” value ([1]; 100 ng/ml) is reported as 1. The “# of individuals of 14 with positive BAT test” value ([1]; 1000 ng/ml) was 2, the “% responders of in-vitro T cell proliferation test, Allergic” value [2] was 17% and the “% responders … Non-allergics” value [2] was 0%. For the same molecule, the “% HDM allergic individuals with cytokine production in ex-vivo T cell assay IL-5” value [3] was 6%, the “% HDM allergic individuals with cytokine production in ex-vivo T cell assay IL-9” value [3] was 0% and the “% HDM allergic individuals with cytokine production in ex-vivo T cell assay IL-10” value [3] was 75%. For the same molecule, the “% HDM allergic individuals with cytokine production in ex-vivo T cell assay IL-13” value [3] was 6%, the “% HDM allergic individuals with cytokine production in ex-vivo T cell assay IL-17” value [3] was 25% and the “% HDM allergic individuals with cytokine production in ex-vivo T cell assay IL-31” value [3] was 0%. For the same molecule, the “% HDM allergic individuals with cytokine production in ex-vivo T cell assay INF-g” value [3] was 6%, the “% non-allergic individuals with cytokine production in ex-vivo T cell assay IL-5” value [3] was 0% and the “% non-allergic individuals with cytokine production in ex-vivo T cell assay IL-9” value [3] was 0%. For the same molecule, the “% non-allergic individuals with cytokine production in ex-vivo T cell assay IL-10” value [3] was 100%, the “% non-allergic individuals with cytokine production in ex-vivo T cell assay IL-13” value [3] was 0% and the “% non-allergic individuals with cytokine production in ex-vivo T cell assay IL-17” value [3] was 50%. For the same molecule, the “% non-allergic individuals with cytokine production in ex-vivo T cell assay IL-31” value [3] was 0% and the “% non-allergic individuals with cytokine production in ex-vivo T cell assay INF-g” value [3] was 0%.

B5: Derp2: major house dust mite allergen, group 2, Dermatophagoides pteronyssinus; control (protein, UniProt P49278 18-146, looked up)
Mite group 2 allergen Der p 2: DQVDVKDCANHEIKKVLVPGCHGSEPCIIHRGKPFQLEAVFEANQNTKTAKIEIKASIDGLEVDVPGIDPNACHYMKCPLVKGQQYDIKYTWNVPKIAPKSENVVVTVKVMGDDGVLACAIATHAKIRD
B5 was tested, and the “# of individuals of 14 with positive BAT test” value ([1]; 1 ng/ml) was 13, the “# of individuals of 14 with positive BAT test” value ([1]; 10 ng/ml) was 13 and the “# of individuals of 14 with positive BAT test” value ([1]; 100 ng/ml) was 13. For the same molecule, the “# of individuals of 14 with positive BAT test” value ([1]; 1000 ng/ml) was 13, the “% responders of in-vitro T cell proliferation test, Allergic” value [2] was 57% and the “% responders … Non-allergics” value [2] was 0%. The “% HDM allergic individuals with cytokine production in ex-vivo T cell assay IL-5” value [3] was 56%, the “% HDM allergic individuals with cytokine production in ex-vivo T cell assay IL-9” value [3] was 31% and the “% HDM allergic individuals with cytokine production in ex-vivo T cell assay IL-10” value [3] was 56%. For the same molecule, the “% HDM allergic individuals with cytokine production in ex-vivo T cell assay IL-13” value [3] was 50%, the “% HDM allergic individuals with cytokine production in ex-vivo T cell assay IL-17” value [3] was 0% and the “% HDM allergic individuals with cytokine production in ex-vivo T cell assay IL-31” value [3] was 6%. For the same molecule, the “% HDM allergic individuals with cytokine production in ex-vivo T cell assay INF-g” value [3] was 0%, the “% non-allergic individuals with cytokine production in ex-vivo T cell assay IL-5” value [3] was 0% and the “% non-allergic individuals with cytokine production in ex-vivo T cell assay IL-9” value [3] was 0%. For the same molecule, the “% non-allergic individuals with cytokine production in ex-vivo T cell assay IL-10” value [3] was 17%, the “% non-allergic individuals with cytokine production in ex-vivo T cell assay IL-13” value [3] was 0% and the “% non-allergic individuals with cytokine production in ex-vivo T cell assay IL-17” value [3] was 0%. For the same molecule, the “% non-allergic individuals with cytokine production in ex-vivo T cell assay IL-31” value [3] was 0% and the “% non-allergic individuals with cytokine production in ex-vivo T cell assay INF-g” value [3] was 0%.
